Data published in patent publication US20170212130A1 (ROCKEFELLER UNIVERSITY, published 2017).

What was measured:
[1] = target: T1, GFP-His6 (eGFP) (Aequorea victoria, UniProt P42212 2-238 = GFP); assay: method not named in the sentence (in vitro Kd by SPR per FIG. 3 legend)
T1 construct: SPR and bead assays speak only of recombinant GFP or eGFP; also called recombinant GFP; A. victoria (Av) GFP

[2] = target: T2, DsRed (Discosoma sp., UniProt Q9U6Y8 1-225); assay: bead binding: nanobody-Dynabeads + fluorescent protein, eluate on SDS-PAGE
T2 construct: Recombinant fluorescent protein; construct not described; also called standard DsRed; DsRed from Discosoma (Ds)
T2 sequence (Q9U6Y8 whole entry): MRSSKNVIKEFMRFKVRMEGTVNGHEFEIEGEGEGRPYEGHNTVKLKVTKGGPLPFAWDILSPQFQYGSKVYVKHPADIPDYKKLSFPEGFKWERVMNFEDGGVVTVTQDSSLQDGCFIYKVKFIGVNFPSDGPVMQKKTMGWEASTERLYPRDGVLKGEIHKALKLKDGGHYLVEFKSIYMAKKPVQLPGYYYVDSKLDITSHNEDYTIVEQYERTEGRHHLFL

[3] = target: T3, GFP-His6 (eGFP) (Aequorea victoria, UniProt P42212 2-238 = GFP); assay: SPR, GFP immobilized; reference LaG-16 or LaG-2 alone
[4] = target: T3, GFP-His6 (eGFP); assay: SPR, GFP immobilized
[5] = target: T4, GFPuv (Aequorea victoria, UniProt P42212 1-229 = GFP, limits assumed); assay: NMR, 15N-1H HSQC of 15N-GFPuv with 1-1.2 molar excess of LaG
T4 construct: 15N-labeled for NMR; also called GFPuv variant; 15N-labeled GFPuv

[6] = target: T1, GFP-His6 (eGFP); assay: SPR, GFP immobilized, Langmuir fit; no unit printed [continued]
[7] = target: T1, GFP-His6 (eGFP); assay: SPR, GFP immobilized
[8] = target: T1, GFP-His6 (eGFP); assay: label under gel lane; legend: in vitro Kd for GFP by SPR
[9] = target: T1, GFP-His6 (eGFP); assay: as above; remark: listed apart in the source
[10] = target: T1, GFP-His6 (eGFP); assay: equilibrium bead binding: LaG-Dynabeads + 0.8-400 nM GFP, Coomassie band density fit
[11] = target: T1, GFP-His6 (eGFP); assay: bead binding assay (footnote 1)
[12] = target: T1, GFP-His6 (eGFP); assay: SPR, GFP immobilized, Langmuir fit; unit inferred

Binder	binding result [2]	Kd [7] [nM]	Kd [8] [nM]	Kd [9] [nM]	further results
LaG-41 (VHH) VHH: DVQLVESGGGLVQAGGSLRLSCAASGPTGAMAWFRQAPGKEREFVGGISGSETDTYYVDSVKGRFTVDRDNVKNTVYLQMNSLKPEDTAVYYCAARRRITLFTSRTDYDFWGRGTQVTV	no binding	–	–	–	Kd [1]: 0.9 nM
LaG16-LaG2 fusion with a flexible glycine-rich linker (G4S) (other) MAQVQLVESGGRLVQAGDSLRLSCAASGRTFSTSAMAWFRQAPGREREFVAAITWTVGNTILGDSVKGRFTISRDRAKNTVDLQMDNLEPEDTAVYYCSARSRGYVLSVLRSVDSYDYWGQGTQVTVSGGGGSMAQVQLVESGGGLVQAGGSLRLSCAASGRTFSNYAMGWFRQAPGKEREFVAAISWTGVSTYYADSVKGRFTISRDNDKNTVYVQMNSLIPEDTAIYYCAAVRARSFSDTYSRVNEYDYWGQGTQVTV	–	–	–	–	fold lower Kd than either LaG alone [3]: ~20 fold; Kd [4]: 0.036 nM
LaG-24 (VHH) VHH: DVQLVESGGGLVQPGGSLRLSCAASGEIASIIAIGWYRQAPGKQRESVALITRSGMITYGDSAQGRFTISRDDAKNTVYLHMDDLVPEDTAVYYCNAKKVSFGDYWGQGTQVTVS	no binding	41	35	35	binding result [5]: no binding; Kd [6]: 41 nM
LaG-2 (VHH, that range is inconsistent in itself; not shown: PreScission Protease cleavage site and C-terminal 6xHis tag) VHH: QVQLVESGGGLVQAGGSLRLSCAASGRTFSNYAMGWFRQAPGKEREFVAAISWTGVSTYYADSVKGRFTISRDNDKNTVYVQMNSLIPEDTAIYYCAAVRARSFSDTYSRVNEYDYWGQGTQVTV	no binding	16	–	–	Kd [10]: 19 nM; Kd [11]: 19 nM
LaG-9 (VHH) VHH: DVQLVESGGGLVQAGGSLRLSCAASGRTFSTSAMGWFRQAPGKEREFVARITWSAGYTAYSDSVKGRFTISRDKAKNTVYLQMNSLKPEDTAVYYCASRSAGYSSSLTRREDYAYWGQGTQVTVS	no binding	3.5	3.5	3.5	Kd [12]: 3.5 nM
